Assay results: patent publication US20190336589A1, “IMMUNIZING PEPTIDE, METHOD FOR PRODUCING IMMUNIZING PEPTIDE, PHARMACEUTICAL COMPOSITION FOR IMMUNE DISEASE CONTAINING SAME, AND METHOD FOR TREATING IMMUNE DISEASE” (OSAKA UNIVERSITY, priority 2015, published 2019)

How the values were obtained:
[1] = target: T1, complex of HEL peptide and MHC class II molecule (I-A^k) on 293 T cells (Mus musculus, UniProt P01910+P06343); assay: Flow cytometry of serum IgG from HEL protein-immunized mice binding to 293 T cells expressing I-A^k pulsed with HEL peptides
T1 construct: α-chain of mouse MHC class II molecule (I-A^k); β-chain of mouse MHC class II molecule (I-A^k); expressed in transfected cells; host or cells: 293T cells (pME18S vectors, co-transfected with pMX-GFP)
Source text: From mouse spleen cDNA, polynucleotides encoding the α-chain and the β-chain of a mouse MHC class II molecule (I-A^k) shown below were cloned into pME18S vectors, respectively. Thus, a mouse MHC class II molecule (I-A^k) α-chain expression vector (I-A^k a expression vector) and a mouse MHC class II molecule (I-A^k) β-chain expression vector (I-A^k β expression vector) were produced. As a GFP expression vector, pMX-GFP (obtained from the Division of Cellular Therapy in the Advanced Clinical Research Center of the Institute of Medical Science, the University of Tokyo) was used.
293T cells (obtained from RIKEN BioResource Center) were used as host cells to which the above-described expression vectors were to be introduced. First, the 293 T cells were seeded in a 24-well plate at a density of 2×10^5 cells/500 μl/well. Next, the expression vectors were introduced to the 293T cells using a PEI max solution obtained by dissolving a transfection 5 reagent (PEI max, Cosmo Bio Co., Ltd.) in purified water at a concentration of 2 mg/ml. Specifically, a mixture of 2 μl of the PEI max solution and 50 μl of a serum-free medium (OPTI-MEM®, GIBCO) was added to 50 μl of a serum-free medium containing 0.26 μg of the I-A^k c expression vector, 0.26 μg of the I-A^k f expression vector, and 0.26 μg of the GFP expression vector. Then, they were mixed together, whereby a transfection reagent was prepared. Thereafter, the transfection reagent was added to each well to introduce the expression vectors to the 293 T cells. After the introduction, the 293 T cells were cultured in a DMEM medium at 37° C. for 12 hours. Next, each of HEL peptides shown in Table 3 below was added to the wells at a concentration of 20 μmol/l. The 293 T cells were cultured for another 24 hours under the above-described culture conditions, whereby the 293 T cells were pulsed with the HEL peptide. The cultured 293 T cells were collected from the wells. Thereafter, the collected 293 T cells were used in antibody detection to be described below. The HEL peptides used in the present example and the following examples were obtained from SCRUM Inc., Eurofins Genomics K.K., or GenScript. In the HEL protein, a T-cell epitope presented by the MHC class II molecule I-A^k is a peptide consisting of the amino acid sequence of SEQ ID NO: 1 (DGSTDYGILQINSR). Thus, among the HEL peptides shown in Table 3 below, HEL peptide 41-70 corresponds to the immunizing peptide.
100 μg of a HEL protein (Sigma) was mixed with a complete Freund's adjuvant (CFA, Sigma), and the resultant mixture was administered subcutaneously to mice (B10.A strain). Two weeks after the administration, whole blood was collected from each mouse, and serum was collected from the whole blood.
The serum collected from each of the HEL protein-immunized mice was diluted 100-fold with a HANKS' BALANCED SALT SOLUTION (HBSS, Sigma) to obtain a diluted serum. Next, 10 μl of the diluted serum was added to the 293 T cells obtained in the above item (1) to cause a reaction. The 293 T cells after the reaction were washed, and then stained with an APC-labeled anti-mouse IgG (H+L) antibody (code-number: 715-136-150, Jackson ImmunoResearch). Thereafter, the stained 293 T cells were analyzed by flow cytometry (FACSCalibur™, Becton Dickinson) (peptide non-added groups). As peptide added groups, the HEL peptides shown in Table 3 above were added to the diluted serums, respectively, at a concentration of 40 μmol/l. Then, the diluted serums containing the respective HEL peptides were added to the 293 T cells pulsed with the corresponding HEL peptides to cause a reaction. Except for the above, the peptide added groups were analyzed by the flow cytometry analysis in the same manner.
Peptide non-added groups were analyzed by flow cytometry in the same manner as in the above item (3), except that, instead of the HEL peptides shown in Table 3 above, the HEL peptide 41-70, the HEL peptide 48-61, and HEL peptides shown in Table 4 below were used. […]

[2] = target: T2, complex of HEL peptide and MHC class II molecule (I-A^k) on LK35.2 cells (Mus musculus, UniProt P01910+P06343); assay: Immunization of mice with HEL peptides; serum IgG1 binding to HEL peptide-pulsed LK35.2 cells (flow cytometry); type: in vivo, mice (B10.A strain); settings: 30 nmol peptide with CFA subcutaneously; serum two weeks after administration
T2 construct: LK35.2 cells expressing I-A^k (the MHC class II molecule); endogenous in cells; host or cells: LK35.2 cells
Description: 30 nmol of the HEL peptide 41-70 or the HEL peptide 48-61 was mixed with a complete Freund's adjuvant. Each of the thus-obtained mixture was administered subcutaneously to mice (B10.A strain). Two weeks after the administration, whole blood was collected from each mouse, and serum was collected from the whole blood.
LK35.2 cells were pulsed with the HEL peptide in the same manner as in the item (2) in Example 1B, except that the HEL peptide 41-70 or the HEL peptide 48-61 was added instead of the HEL protein, the HEL peptide 41-70, and the HEL peptide 48-61. The cultured LK35.2 cells were collected from the wells. Thereafter, the collected LK35.2 cells were used in antibody detection to be described below.
Flow cytometry analysis was performed in the same manner as in the item (3) in Example 1A, except that the LK35.2 cells in the item (2) in Example 2A were used instead of the 293 T cells and that an Alexa®647-labeled anti-mouse IgG1 antibody (catalog number: A21240, Invitrogen) was used instead of the APC-labeled anti-mouse IgG (H+L) antibody (peptide added groups). As Control 1, the flow cytometry analysis was performed in the same manner, except that serums collected from non-immunized mice were used instead of the serums of the HEL peptide-immunized mice. As Control 2, the flow cytometry analysis was performed in the same manner, except that the HEL peptide was not added (peptide non-added groups).

[3] = peptide added groups: same HEL peptide added to diluted serum at 40 μmol/l, serum of HEL protein-immunized mice
[4] = peptide non-added groups, serum of HEL protein-immunized mice diluted 100-fold, I-A^k 293 T cells pulsed with 20 μmol/l peptide

T2 sequence (P01910 24-256): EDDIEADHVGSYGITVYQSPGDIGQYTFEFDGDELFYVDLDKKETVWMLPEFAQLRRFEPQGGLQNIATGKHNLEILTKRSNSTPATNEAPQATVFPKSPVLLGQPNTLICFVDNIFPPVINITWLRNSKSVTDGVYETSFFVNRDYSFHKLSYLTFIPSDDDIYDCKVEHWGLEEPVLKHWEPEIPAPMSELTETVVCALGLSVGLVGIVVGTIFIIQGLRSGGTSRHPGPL
T2 sequence (P06343 28-263): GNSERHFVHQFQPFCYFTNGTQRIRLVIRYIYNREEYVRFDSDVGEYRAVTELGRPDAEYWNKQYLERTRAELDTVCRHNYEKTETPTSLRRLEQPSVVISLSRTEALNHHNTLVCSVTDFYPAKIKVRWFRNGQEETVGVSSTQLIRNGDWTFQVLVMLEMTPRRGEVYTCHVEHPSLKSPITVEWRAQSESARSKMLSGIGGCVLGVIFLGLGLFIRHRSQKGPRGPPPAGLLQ
T1 sequence (P01910 24-256): as the sequence (P01910 24-256) above
T1 sequence (P06343 28-263): as the sequence (P06343 28-263) above

Sequence	serum IgG binding to 293 T cells pulsed with the HEL peptide [1, 3]	serum IgG binding to 293 T cells pulsed with the HEL peptide [1, 4]	IgG1 binding of serum of peptide-immunized mice to LK35.2 cells pulsed with HEL peptide 41-70 [2]	IgG1 binding of serum of peptide-immunized mice to LK35.2 cells pulsed with HEL peptide 48-61 [2]
DGSTDYGILQINSR (Gallus gallus domesticus) [HEL peptide 48-61, reference compound]	not observed	not observed	not observed	not observed
QATNRNTDGSTDYGILQINSRWWCNDGRTP (Gallus gallus domesticus) [HEL peptide 41-70]	observed	observed	observed	not observed
